Test [1] deals with T. brucei coronin coiled-coil domain V493I–V507M (T. brucei) (UniProt Q57W63). The test can be described thus: crystal structure.
In test [2] the target is T. brucei coronin coiled-coil domain V507M (T. brucei) (UniProt Q57W63). The experiment in a line: crystal structure.
The target in test [3] is T. brucei coronin coiled-coil domain (T. brucei) (UniProt Q57W63). The test can be described thus: SAXS.
For test [4] the target is unchanged. The experiment in a line: cross-linking.
Test [5] has the same target. The test can be described thus: SEC. Background: Size exclusion chromatography separates by hydrodynamic size, large species first.
The target is the same in test [6]. The experiment in a line: crystal structure.

Usually stoichiometry N stands for a count of units in the complex or per binding partner.

Substance “T. brucei coronin coiled-coil domain V493I–V507M (from UniProt Q57W63 477-523) (domain or fragment)” returned a stoichiometry N in test [1] of 4.

“T. brucei coronin coiled-coil domain V507M (from UniProt Q57W63 477-523) (domain or fragment)” yielded a stoichiometry N in test [2] of 4.

For the substance “T. brucei coronin coiled-coil domain (from UniProt Q57W63 477-523) (domain or fragment)”, the stoichiometry N in test [3], in test [4], in test [5] and in test [6] was 4 throughout.

The values above are taken from paper PMC8554105.
